Patent US20220073883A1, “COMPOSITIONS AND METHODS FOR GENERATION OF HEART FIELD-SPECIFIC PROGENITOR CELLS” (The Johns Hopkins University, priority 2018, published 2022)
Entries after “also recorded” stand apart in the source; their conditions may differ.

B1: Wnt3A: Wnt protein (canonical) (protein, UniProt P56704 19-352, looked up)
Protein Wnt-3a: SYPIWWSLAVGPQYSSLGSQPILCASIPGLVPKQLRFCRNYVEIMPSVAEGIKIGIQECQHQFRGRRWNCTTVHDSLAIFGPVLDKATRESAFVHAIASAGVAFAVTRSCAEGTAAICGCSSRHQGSPGKGWKWGGCSEDIEFGGMVSREFADARENRPDARSAMNRHNNEAGRQAIASHMHLKCKCHGLSGSCEVKTCWWSQPDFRAIGDFLKDKYDSASEMVVEKHRESRGWVETLRPRYTYFKVPTERDLVYYEASPNFCEPNPETGSFGTRDRTCNVSSHGIDGCDLLCCGRGHNARAERRREKCRCVFHWCCYVSCQECTRVYDVHTCK
B2: Wnt11: Wnt protein (noncanonical) (protein, UniProt O96014 25-354, looked up)
Protein Wnt-11: IKWLALSKTPSALALNQTQHCKQLEGLVSAQVQLCRSNLELMHTVVHAAREVMKACRRAFADMRWNCSSIELAPNYLLDLERGTRESAFVYALSAAAISHAIARACTSGDLPGCSCGPVPGEPPGPGNRWGGCADNLSYGLLMGAKFSDAPMKVKKTGSQANKLMRLHNSEVGRQALRASLEMKCKCHGVSGSCSIRTCWKGLQELQDVAADLKTRYLSATKVVHRPMGTRKHLVPKDLDIRPVKDSELVYLQSSPDFCMKNEKVGSHGTQDRQCNKTSNGSDSCDLMCCGRGYNPYTDRVVERCHCKYHWCCYVTCRRCERTVERYVCK
B3: Noggin: blocks Bmps from binding their receptors (protein, UniProt Q13253 28-232, looked up)
Noggin: QHYLHIRPAPSDNLPLVDLIEHPDPIFDPKEKDLNETLLRSLLGGHYDPGFMATSPPEDRPGGGGGAAGGAEDLAELDQLLRQRPSGAMPSEIKGLEFSEGLAQGKKQRLSKKLRRKLQMWLWSQTFCPVLYAWNDLGSRFWPRYVKVGSCFSKRSCSVPEGMVCKPSKSVHLTVLRWRCQRRGGQRCGWIPIQYPIISECKCSC
B4: Wnt5A: Wnt protein (noncanonical) (protein, UniProt P41221 62-380, looked up)
Protein Wnt-5a: IIGAQPLCSQLAGLSQGQKKLCHLYQDHMQYIGEGAKTGIKECQYQFRHRRWNCSTVDNTSVFGRVMQIGSRETAFTYAVSAAGVVNAMSRACREGELSTCGCSRAARPKDLPRDWLWGGCGDNIDYGYRFAKEFVDARERERIHAKGSYESARILMNLHNNEAGRRTVYNLADVACKCHGVSGSCSLKTCWLQLADFRKVGDALKEKYDSAAAMRLNSRGKLVQVNSRFNSPTTQDLVYIDPSPDYCVRNESTGSLGTQGRLCNKTSEGMDGCELMCCGRGYDQFKTVQTERCHCKFHWCCYVKCKKCTEIVDQFVCK
B5: Activin A: TGF-β protein; key ligand for Activin/TGF signaling (protein, UniProt P08476 311-426, looked up)
Inhibin beta A chain: GLECDGKVNICCKKQFFVSFKDIGWNDWIIAPSGYHANYCEGECPSHIAGTSGSSLSFHSTVINHYRMRGHSPFANLKSCCVPTKLRPMSMLYYDDGQNIIKKDIQNMIVEECGCS
modifications: Inhibin beta A chain

What was measured:
Assay type in all cases: cell-based, mouse
[1] = system: ESC-derived cardiac spheroids; assay: qPCR of FHF (tbx5, hcn4) and SHF (tbx1, fgf10) markers in treated spheroids; conditions: in combination with Bmp4 (1.25 ng/ml), Wnts 100 ng/ml, dorsomorphin, K2288, DMH1 100 nM; for expression of SHF markers (tbx1, fgf10): IWP-2 0.5 μM
Procedure: To investigate the crosstalk between Bmp and Wnt signals, the spheroids were treated with Bmp4 and Wnts in combinations and analyzed expression levels of FHF (tbx5, hcn4) and SHF (tbx1, fgf10) markers.
(§1) Mouse ESCs and human iPSCs were maintained and differentiated as previously described^5, 43, 68 Briefly, mESCs were maintained on gelatin-coated dishes in maintenance medium (Glasgow minimum essential medium supplemented with 10% fetal bovine serum and […] Chir99021 and 1 μM PD98059 or 1000 U/ml ESGRO (Millipore, Billerica, Mass.), Glutamax, sodium pyruvate, MEM non-essential amino acids (Thermo Fisher Scientific). For spheroid formation and differentiation, mouse ESCs were plated in IMDM/Ham's F12 (Cellgro) (3:1) supplemented with N2, B27, penicillin/streptomycin, 2 mM GlutaMAX, 0.05% BSA, 5 ng/ml L-ascorbic acid (Sigma-Aldrich) and α-monothioglycerol (MTG; Sigma-Aldrich) at a final density of 100,000 cells/ml to allow spheroid formation. After 48 h spheroids were collected and transferred to ultra-low attachment plastic surface and induced for 40 hours with Activin A, Bmp4, Wnt3A, Wnt5A, Wnt11 (R&D Systems) alone or in combination. Human iPSCs were maintained in Geltrex-coated T25 flasks using Essential 8 medium. For spheroid formation and differentiation, hiPSCs were plated in RPMI plus B27 minus insulin with Bmp4 and CHIR99021 and incubated for 48 h. After 48 h media was changed to RPMI plus B27 minus insulin. The hiPSC line used in this study was developed by Dr. Linzhao Cheng, the Johns Hopkins University, and had was generated from a de-identified patient using an approved IRB protocol.
RNA isolation was performed using either RNeasy Micro Kit (Cat #74004, Qiagen) or […]® PicoPure® RNA Isolation Kit following the manufacturer's instructions, and cDNA was generated using the high-capacity cDNA reverse transcription kit (Applied Biosystems). qPCR reactions were performed using the Taqman (Applied Biosystems) or Sybr Select qPCR mix (Thermo Fisher) with indicated primers. Gene expression levels were normalized to Gapdh. For the clonal cell-fate analysis, single Isl1-Cre RFP+, Cxcr4− and Isl1-Cre RFP^+, Cxcr4^+ cells were sorted at day 5.5 into 384-well plates and allowed to grow and differentiate for 7 days. […] RNA was isolated from 24 wells with colonies from Cxcr4− and Cxcr4+ sorted cells, respectively. Ct values<30 were considered positive. All samples were also analyzed for gapdh to exclude false-positive results.

[2] = system: ESC-derived cardiac spheroids (Hcn4-GFP; Tbx1-Cre; Ai9); assay: heart field specification: Hcn4-GFP+ and Tbx1-Cre, RFP+ CPCs in cardiac spheroids by FACS at day 5.5; conditions: for Bmp4-mediated induction of RFP+ cells (SHF) / Bmp4-mediated induction of GFP+ cells (FHF): in combination with Bmp4 (1.25 ng/ml), Noggin 100 ng/ml, dorsomorphin, K2288, DMH1 100 nM; for Bmp4-mediated induction of RFP+ cells (SHF): IWP-2 0.5 μM; for induction of GFP+ cells (FHF) / induction of RFP+ cells (SHF): increasing levels of the factor, day 5.5
Source text: (§2) Next, an embryonic stem cell (ESC) line (ESCHcn4-GFP; Tbx1-Cre Ai9) was established from the mice to determine if heart field specification can be recapitulated in a PSC system. It was hypothesized that a 3D multicellular system would better resemble heart field development in vivo, as early development is a highly dynamic process that involves tissue-tissue interactions between multiple cell types. Since CPCs are specified during mid-late gastrulation 7, 8, multicellular 3D spheroids were generated with the PSCs and treated them with various concentrations of Activin A and Bmp4 to determine whether induction of the early mesoderm influences heart field specification (FIGS. 1C and 1D).
IPA utilizes an input gene list and a curated database of literature-derived pathways to infer which canonical pathways are most significant to the input data set. The analysis was focused on pathways related to ‘organism growth and development’. […] The effect of Bmp signals was evaluated during heart field specification. In order to minimize the possibility of influencing heart field cells after induction, all of the data were analyzed within 12 hs after the appearance of GFP^+/RFP^+ cells.
as §1
(§3) Mouse embryos (E7.75) were dissected using forceps under a stereomicroscope (Zeiss) and regions of interest were dissociated and harvested using TrypLE. Embryoid bodies (EBs) and cells were dissociated and harvested using TrypLE. Single-cells were analyzed for RFP/GFP expression or sorted using a SH800 Cell sorter (Sony Biotechnologies). Live cells were analyzed for RFP and GFP expression and stained with antibodies targeting for the presence of appropriate markers. […] Data was analyzed using FlowJo software.

[3] = system: canonical Wnt activity; assay: Topflash luciferase assay; conditions: in combination with Bmp4 (1.25 ng/ml); 88 h of differentiation
Procedure: To test this, canonical Wnt activity was measured with its readout Topflash.
For Tbx1 and Tbx5 knockdown experiments, Tbx1 and Tbx5 ON-TARGETplus SMARTpool siRNA or scrambled siRNA (Dharmacon/Thermo Fisher Scientic) was used at 5 nM for cell transfection. Cells were transfected with Lipofectamine LTX (Life Technologies) in single-cell suspensions. For TOP-flash luciferase assays, mESCs were transfected with Topflash constructs and Renilla constructs and analyzed as previously described 5.

[4] = system: ESC-derived cardiac spheroids; assay: cardiogenesis: cTnT+ cardiomyocytes in cardiac spheroids at day 9 (flow cytometry); conditions: varying/increasing concentrations; cTnT+ at day 9
Source text: as §2, with “1D). After 5 days of differentiation (120 h), GFP+ and RFP+ cells started to appear in the spheroids. The spheroids were analyzed for GFP+ and RFP+ cells by fluorescent activated cell sorting (FACS) at day 5.5 (132 h). […] The double positive GFP+/RFP+ cells correlated with the total number of GFP+ and RFP+ cells (FIG. 6J) and were sporadically interspersed within the GFP+ domain (FIG. 6K).” for “1D).”
The overall effects on cardiogenesis were evaluated by analyzing the number of cardiomyocytes at day 9 (FIG. 6L).
as §1, with “After 48 h media was changed to RPMI plus B27 minus insulin. The hiPSC line used in this study was developed by Dr. Linzhao Cheng, the Johns Hopkins University, and had was generated from a de-identified patient using an approved IRB protocol.” left out
as §3, with “Embryoid bodies (EBs) and cells were dissociated and harvested using TrypLE.” left out

Molecule	expression of SHF markers (tbx1, fgf10) [1]	expression of FHF markers (tbx5, hcn4) [1]	Bmp4-mediated induction of RFP+ cells (SHF) [2]	Bmp4-mediated induction of GFP+ cells (FHF) [2]	topflash / Wnt activity [3]	induction of GFP+ cells (FHF) [2]	induction of RFP+ cells (SHF) [2]	effect on cardiogenesis [4]
CC(C)Oc1ccc(-c2cnc3c(-c4ccnc5ccccc45)cnn3c2)cc1 [DMH1, reference compound]	without significantly affecting	suppressed	without significantly affecting	suppressed	without significantly affecting	–	–	–
Cc1ccc2nc(NC(=O)CSc3nc4c(c(=O)n3-c3ccccc3)SCC4)sc2c1 [IWP-2, reference compound]	suppressed	–	abolished	–	–	–	–	–
COc1cc(-c2cc(-c3cccc(O)c3)cnc2N)cc(OC)c1OC [K2288, reference compound]	without significantly affecting	suppressed	without significantly affecting	suppressed	without significantly affecting	–	–	–
c1cc(-c2cnn3cc(-c4ccc(OCCN5CCCCC5)cc4)cnc23)ccn1 [dorsomorphin, reference compound]	–	–	–	–	no effect	–	–	–
B1	further increase	reduction	–	–	further increased	did not affect	increased numbers	–
B2	overall reduction	overall reduction	–	–	–	–	–	–
B3	–	–	abolished	abolished	markedly reduced; also recorded: inhibition	–	–	–
B4	overall reduction	overall reduction	–	–	–	–	–	–
B5	–	–	–	–	–	no apparent effect; also recorded: no overall effect	no apparent effect; also recorded: no overall effect	modest effect; also recorded: did not have a significant effect
